Assay results taken from patent US20200115466A1 (NANOCRUISE PHARMACEUTICAL, published 2020).
Numbering of substitutions follows the chain as printed.

B1: mouse-human chimeric antibody 16A (antibody, human IgG1, lambda, V domains shown)
VH: EVKLHQSGGGLVQPGGFLKISCVVSGIDFSRYWMSWVRRAPGKGLEWIGEITPDSNTINYVPSLKDNFGISRDNAKNTLFLQMTKVRSEDTALYFCASYYEGFAYWGQGTLVTVSA
VL: QAVVTQESALTTSPGETVTLTCRSSTGAVITSNYANWVQEKPDHLFTGLIGRTYNRVPGVPARFSGSLIGDKAALTITGAQTEDEAIYFCALWYSNHFVFGGGTKLTVLG
notes: Murine 16A VH and VL joined to human IgG1 constant region and human lambda 2 light chain; also called chimeric 16A; 16A chimeric antibody
B2: humanized 16A antibody hVH2hVL2 (antibody, human IgG1, lambda, V domains shown)
VH: EVQLVESGGGLVQPGGSLRLSCAVSGIDFSRYWMSWVRQAPGKGLEWVGEITPDSNTINYVPSVKGRFTISRDNAKNSLYLQMNSLRAEDTAVYYCASYYEGFAYWGQGTLVTVSS
VL: QAVVTQEPSLTVSPGGTVTLTCGSSTGAVITSNYANWVQQKPGQAPTGLIGRTYNKVPWTPARFSGSLLGDKAALTLSGAQPEDEAEYFCALWYSNHFVFGGGTKLTVLG
notes: CDR-grafted humanized antibody; also called Humanized HC 2 (H2988) with Humanized LC2 (L2988)
B3: humanized 16A antibody hVH4hVL2 (antibody, human IgG1, lambda, V domains shown)
VH: B2 VH with S17F, A23V, R67N, T69G, Y80F, Y95F
VL: B2 VL
notes: CDR-grafted humanized antibody; also called Humanized HC 4 (H2990) with Humanized LC2 (L2988)
B4: humanized 16A antibody hVH1hVL2 (antibody, human IgG1, lambda, V domains shown)
VH: B2 VH with G49A
VL: B2 VL
notes: CDR-grafted humanized antibody; also called Humanized HC 1 (H2987) with Humanized LC2 (L2988)
B5: humanized 16A antibody hVH3hVL2 (antibody, human IgG1, lambda, V domains shown)
VH: B2 VH with Q3K, Y95F
VL: B2 VL
notes: CDR-grafted humanized antibody; also called Humanized HC 3 (H2989) with Humanized LC2 (L2988)
B6: humanized 16A antibody hVH5hVL2 (antibody, human IgG1, lambda, V domains shown)
VH: B2 VH with A23V, T69G, Y95F
VL: B2 VL
notes: CDR-grafted humanized antibody; also called Humanized HC 5 (H2991) with Humanized LC2 (L2988)

molecular target: T1, MUC1 on the surface of lung cancer cell line H838 (UniProt P15941 24-1255, limits assumed, tumour-type glycosylation (GalNAc epitope RPAPGS(GalNAc)TAPPAHG), as the filing describes the antigen); assay: flow cytometry, surface staining of H838 cells, PE anti-human IgG
T1 construct: whole, on cells; No MUC1-negative control of H838 is reported; also called antigen
T1 sequence (P15941 24-1255 limits assumed): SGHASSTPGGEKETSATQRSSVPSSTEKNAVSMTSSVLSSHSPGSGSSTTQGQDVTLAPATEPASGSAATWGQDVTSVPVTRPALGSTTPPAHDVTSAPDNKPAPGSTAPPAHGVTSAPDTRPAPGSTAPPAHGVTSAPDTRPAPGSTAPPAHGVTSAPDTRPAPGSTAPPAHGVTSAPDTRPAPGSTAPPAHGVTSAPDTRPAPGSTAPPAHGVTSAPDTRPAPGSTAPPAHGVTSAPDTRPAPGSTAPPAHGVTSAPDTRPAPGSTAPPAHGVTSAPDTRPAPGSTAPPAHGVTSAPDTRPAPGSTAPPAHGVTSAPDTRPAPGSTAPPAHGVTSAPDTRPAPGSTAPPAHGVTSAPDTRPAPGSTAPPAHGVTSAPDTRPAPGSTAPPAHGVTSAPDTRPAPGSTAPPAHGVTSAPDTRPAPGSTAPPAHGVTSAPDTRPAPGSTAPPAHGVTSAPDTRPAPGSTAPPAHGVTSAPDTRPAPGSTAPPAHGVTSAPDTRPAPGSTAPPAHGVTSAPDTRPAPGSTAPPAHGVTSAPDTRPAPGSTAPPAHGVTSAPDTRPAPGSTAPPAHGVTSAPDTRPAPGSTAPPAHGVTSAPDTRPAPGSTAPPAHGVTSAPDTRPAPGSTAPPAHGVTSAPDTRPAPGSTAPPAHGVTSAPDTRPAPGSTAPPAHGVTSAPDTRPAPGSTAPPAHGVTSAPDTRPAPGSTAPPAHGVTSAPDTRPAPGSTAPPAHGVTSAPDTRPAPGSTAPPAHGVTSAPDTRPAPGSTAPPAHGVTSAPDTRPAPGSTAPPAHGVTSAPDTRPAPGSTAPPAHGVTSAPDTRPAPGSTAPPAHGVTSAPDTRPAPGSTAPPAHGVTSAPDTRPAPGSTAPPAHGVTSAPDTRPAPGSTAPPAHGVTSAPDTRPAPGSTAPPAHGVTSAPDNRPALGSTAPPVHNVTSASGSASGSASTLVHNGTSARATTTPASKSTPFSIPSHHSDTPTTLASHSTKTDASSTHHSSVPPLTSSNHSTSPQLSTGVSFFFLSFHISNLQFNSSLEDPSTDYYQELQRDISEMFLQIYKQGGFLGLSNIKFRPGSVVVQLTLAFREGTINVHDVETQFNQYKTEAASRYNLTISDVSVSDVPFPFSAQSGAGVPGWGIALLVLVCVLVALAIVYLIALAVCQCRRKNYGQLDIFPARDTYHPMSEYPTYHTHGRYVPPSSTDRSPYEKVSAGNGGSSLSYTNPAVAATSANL
Experimental: Lung cancer cell line H838 was obtained from the University of Texas M.D. Anderson Cancer Center. Cells were cultured in 10% RPMI 1640 medium. Different concentrations of chimeric antibody or humanized antibodies were used as primary antibody for staining, washed three times with PBS, then incubated with PE-conjugated mouse-anti-human IgG (BioLegend). The stained cells were analyzed by FACS Caliber flow cytometer (BD Biosciences, San Jose, Calif.).

| Binder | Minimum concentration of binding to lung cancer cell line H838 [µg/mL] |
| --- | --- |
| B1 | 0.0125 |
| B2 | 0.025 |
| B3 | 0.05 |
| B4 | 0.025 |
| B5 | 0.025 |
| B6 | 0.025 |
